Measurements: article PMC8136768

Target: CEBPβ bZIP DNA-binding domain (pXC1599) (Homo sapiens, UniProt P17676 269-344)
Test: X-ray crystallography

Chain of CEBPβ bZIP DNA-binding domain (pXC1599) (P17676 269-344): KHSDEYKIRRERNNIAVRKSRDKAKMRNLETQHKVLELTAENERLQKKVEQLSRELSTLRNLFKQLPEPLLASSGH

B1: Crystal 16-mer, T:G mismatch (dsDNA)
DNA 1: AGGATTGTGCAATATA
DNA 2: ATATTGCGCAATCCTT
B1: binds.
